# Measurements reported in patent US10214741B2, “Methods and compositions for inhibiting retinopathy of prematurity” (University of Utah Research Foundation, priority 2014, dated 2019).
# B1: vascular endothelial growth factor A (protein)
# chain: APMAEGGGQNHHEVVKFMDVYQRSYCHPIETLVDIFQEYPDEIEYIFKPSCVPLMRCGGCCNDEGLECVPTEESNITMQIMRIKPHQGQHIGEMSFLQHNKCECRPKKDRARQENPCGPCSERRKHLFVQDPQTCKCSCKNTDSRCKARQLELNERTCRCDKPRR
# notes: growth factor used at 20 ng/mL to stimulate hRMVECs
# B2: STAT3.shRNA2: lentivector-ve-cadherin STAT3.shRNA with the best knockdown; rat STAT3 (nucleic acid)
# chain: TGCTGTTGACAGTGAGCGAATCGTGGATCTGTTCAGAAACTAGTGAAGCCACAGATGTAGTTTCTGAACAGATCCACGATCTGCCTACTGCCTCGGA
# B3: luciferase.shRNA: control lentivector shRNA to the nonmammalian gene luciferase (nucleic acid)
# DNA: TGCTGTTGACAGTGAGCGAAATGTTTACTACACTCGGATATAGTGAAGCCACAGATGTATATCCGAGTGTAGTAAACATTCTGCCTACTGCCTCGGA
# Assays:
# retina [1] = conditions: long-term periocular treatment; cited from earlier work
# rat ROP model = assay: Lectin-stained retinal flat mounts, IVNV and AVA, rat ROP model (rat 50/10 OIR model); type: in vivo; conditions: 1 uL intravitreal, ROP model
# macrophages = assay: Macrophages in rat ROP and ROP+SO models; type: in vivo; conditions: 1 uL intravitreal
# Text: Activation of NADPH oxidase generally requires aggregation of a NOX isoform (NOX1-5, Duox1 or 2) with membrane bound p22phox; for NOX1-3 activation, aggregation with Rac1 and cytoplasmic subunits p47phox, p67phox or homologs is also required. Few studies address oxygen effects on NADPH oxidase regulated signaling in ROP or development. Studying NADPH oxidase in vivo is also complicated, because 1) of compensation from NOX isoforms or homologs, which differ in different tissues, and 2) most inhibitors are not specific. In this example, oxygen stresses were varied by using 3 different OIR models: ROP and ROP+SO models in rat and OIR model in mouse. NADPH oxidase-induced signaling in ECs was targeted by reducing leukocyte/macrophages, which generate ROS through NADPH oxidase, or with a transgenic mouse. In rat ROP and ROP+SO models, macrophages ˜75% (FIG. 7A) were reduced with 1 uL intravitreal clodronate). […] Macrophages have multiple effects on angiogenesis including through non-NADPH oxidase mechanisms, so a more specific method was used to study NADPH oxidase-related signaling. NOX 1, 2, 4 are known to be involved in pathologic retinal angiogenesis; NOX2 is in macrophages and ECs. Therefore p47phox−/− mice were used to reduce NADPH oxidase activation from NOX 1-3. […]
# EPOR = EPOR expression in hRMVECs (qPCR, Western blot); type: cell-based, human; conditions: overnight treatment, vs PBS
# Text: hRMVECs (Cell Systems, Kirkland, Wash.) were maintained in EGM-2 endothelial growth medium (Lonza, Walkers-ville, MD) supplemented with 5% fetal bovine serum. Cells of passage 3 to 5 were used for experiments. […]
# For siRNA transfection, hRMVECs at 70% confluency were transfected in six-well plates with siRNAs targeting human EPOR, VEGFR2, or STAT3 (Life Technologies, Carlsbad, Calif.) using Lipofectamine 2000 reagent (Invitrogen by Life Technologies, Carlsbad, Calif.). A silencer selective negative control siRNA was used as control.
# Total RNA of cells was extracted by TRI Reagent (Sigma-Aldrich, St. Louis, Mo.). For dissected retinas, total RNA was extracted using an RNeasy mini kit (Qiagen, Valencia, Calif.). RNA was quantified using a NanoDrop spectrophotometer (Thermo Fisher Scientific, Waltham, Mass.). cDNA was generated with the use of a high-capacity cDNA archive kit (Life Technologies, Carlsbad, Calif.). qPCR was performed on a Mastercycler ep realplex system (Eppendorf, Hauppauge, N.Y.) with the use of SYBR Green master mix (Roche Diagnostics, Indianapolis, Ind.) and primers synthesized by the core research facility of the University of Utah. Expression levels for VEGFA were normalized to the mean value of internal control β-actin. […]
# Dissected retinas and hRMVECs were lysed in radioimmunoprecipitation assay buffer with 1:100 protease inhibitors (Roche Diagnostics, Indianapolis, Ind.) and 2 mmol/L sodium orthovanadate and were homogenized and centrifuged at 13,000 rpm (15,700 g) for 10 minutes at 4° C. Total protein in the supernatant fluid was quantified by a bicinchoninic acid assay (Pierce BCA; Thermo Fisher Scientific, Waltham, Mass.). […] Blots were visualized, and the relative densities of bands were calculated as described herein, using gel analysis software (UN-SCAN-IT gel, version 6.1; Silk Scientific, Orem, Utah). Relative activities were calculated as the ratio of phosphorylated to total protein or to β-actin and are expressed as fold difference compared with control. At least six samples from each group were measured and analyzed.
# pSTAT3 = assay: IHC densitometry of pSTAT3 colabeled with lectin, p18 rat ROP model; type: in vivo; conditions: injected at p10, 10^6 viral particles/inj, vs. luc.shRNA
# rMVECs = assay: Lentivirus transduction specificity (ve-cadherin promoter) in cultured cells; type: cell-based; conditions: rMVECs vs rat MC-1s, 293T
# STAT3 = assay: Western blot of STAT3 in 293T cotransfected with Lenti-VE-cad-GFP-driven shRNA and plasmid expressing coding sequence; type: cell-based, rat; conditions: 293Ts
# Text: The strategy can be similar to knockdown of MC-expressed VEGFA, except a ve-cadherin promoter to target ECs can be used. The ve-cadherin promoter recruits polymerase II to drive miR30 embedded shRNAs. […] For control, shRNA targeted to luciferase (luc.shRNA), a nonmammalian gene, was used. Into a plasmid DNA expressing a Flag-tagged wild type (wt) coding sequence (wt-cDNA) for EPOR or VEGFR2, point mutations in the cognate region of the cDNA can be introduced where the shRNA binds to render the cDNA resistant to RISC cleavage without changing the native amino acid sequence (mut-cDNA). Then cotransfect 293T cells with either VEGFR2.shRNA or EPOR.shRNA and respective wt-cDNA or mut-cDNA. Off target effects can be determined by western blots of Flag expression or from interferon-induced genes using BLOCK-iT RNAi Stress Response Control Kit (Invitrogen, CA). Groups can be: rat EPOR.shRNAs+rat EPOR-wt-cDNA, rat EPOR. shRNAs+rat EPOR-mut-cDNA, rat VEGFR2.shRNA+rat VEGFR2-wt-cDNA or rat VEGFR2.shRNA+rat VEGFR2-mut-cDNA. Luc.shRNA and no DNA transfection can be controls. For specificity (FIG. 14A), lentiviral transduction of rECs, rat MCs (rMC-1s), human ARPE can be tested.
# Using methods as in Example 5, 3 STAT3.shRNAs for knockdown in 293 Ts (FIG. 14D) were developed and tested. […]
# retina [2] = assay: TUNEL staining, retinal layer thickness, caspase 3 in retina, rat ROP model; type: in vivo; conditions: compared with PBS
# Procedure: Whole eye globes were fixed in 4% PFA containing 10 mM sodium orthovanadate for 10 minutes. Corneas and lenses were removed, and posterior eyecups were fixed for another 15 minutes in 4% PFA, then incubated in 30% sucrose/PBS at 4° C. overnight, and mounted in optimal cutting temperature compound (Tissue-Tek; Electron Microscopy Sciences, Hatfield, Pa.). Cryosections (12 μm) were cut sequentially and stained for immunofluorescence analysis. Cryosections were incubated with rabbit anti-phosphorylated VEGFR2 (p-VEGFR2 at Y951; Santa Cruz Biotechnology, Santa Cruz, Calif.) overnight at 4° C. After washes, sections were incubated with AlexaFluor 405 conjugated goat anti-rabbit second antibody for p-VEGFR2 and lectin for 1 hour. Sections stained with only secondary antibody and DAPI were controls. […] For p-VEGFR2 in retinal vessels, the density of p-VEGFR2 colabeling with lectin-stained ECs of the primary vascular plexus at the junctions between avascular retina and vascular retina was measured with the threshold function of the Java-based imaging software (NIH). TUNEL-positive cells colabeled with tetramethylrhodamine red (TMR red) and diamino-2-phenylindole (DAPI) were counted in retinal sections imaged at ×4 magnification. Retinal thickness was measured from ganglion cell to ONL in DAPI-stained sections captured at ×40 magnification using Java-based imaging software (NIH). […]
molecule,measurement,setting,value
CN(C)c1ccc(/C=C2\C(=O)Nc3ccccc32)cc1 [SU4312],retinal apoptosis,retina [1],no retinal apoptosis
O=P(O)(O)C(Cl)(Cl)P(=O)(O)O [clodronate],AVA,rat ROP model,not AVA
same,IVNV,rat ROP model; vs. PBS,significantly reduced
same,reduction of macrophages,macrophages,~75%
B1,EPOR protein,EPOR; 20 ng/mL VEGFA or 10 IU/mL EPO,increased EPOR mRNA expression (FIG. 35A) and protein levels
same,EPOR mRNA expression,EPOR,increased EPOR mRNA expression
B2,pSTAT3/STAT3 colabeling with lectin,pSTAT3,STAT3-lectin colabeling was reduced
same,pSTAT3/STAT3 colabeling with lectin,pSTAT3; listed as STAT3.shRNA,reduced
same,cell specificity of transduction,rMVECs,showed specificity for rat MVECs
same,STAT3 knockdown among 3 STAT3.shRNAs,STAT3,best knockdown
B3,TUNEL+ cells,retina [2],increased TUNEL+ cells at P18 but not at P25
same,"thickness of the retina, INL or ONL",retina [2],did not alter the thickness of the retina
